According to US20170030911:

Tests used:
[1] = molecular target: native bovine aggrecan, fully glycosylated, P13608
[2] = molecular target: β-casein (in 12% β-casein Zymogram Ready Gels, Bio-Rad)
[3] = molecular target: T1, recombinant human brevican, Q96GW7
T1 chain: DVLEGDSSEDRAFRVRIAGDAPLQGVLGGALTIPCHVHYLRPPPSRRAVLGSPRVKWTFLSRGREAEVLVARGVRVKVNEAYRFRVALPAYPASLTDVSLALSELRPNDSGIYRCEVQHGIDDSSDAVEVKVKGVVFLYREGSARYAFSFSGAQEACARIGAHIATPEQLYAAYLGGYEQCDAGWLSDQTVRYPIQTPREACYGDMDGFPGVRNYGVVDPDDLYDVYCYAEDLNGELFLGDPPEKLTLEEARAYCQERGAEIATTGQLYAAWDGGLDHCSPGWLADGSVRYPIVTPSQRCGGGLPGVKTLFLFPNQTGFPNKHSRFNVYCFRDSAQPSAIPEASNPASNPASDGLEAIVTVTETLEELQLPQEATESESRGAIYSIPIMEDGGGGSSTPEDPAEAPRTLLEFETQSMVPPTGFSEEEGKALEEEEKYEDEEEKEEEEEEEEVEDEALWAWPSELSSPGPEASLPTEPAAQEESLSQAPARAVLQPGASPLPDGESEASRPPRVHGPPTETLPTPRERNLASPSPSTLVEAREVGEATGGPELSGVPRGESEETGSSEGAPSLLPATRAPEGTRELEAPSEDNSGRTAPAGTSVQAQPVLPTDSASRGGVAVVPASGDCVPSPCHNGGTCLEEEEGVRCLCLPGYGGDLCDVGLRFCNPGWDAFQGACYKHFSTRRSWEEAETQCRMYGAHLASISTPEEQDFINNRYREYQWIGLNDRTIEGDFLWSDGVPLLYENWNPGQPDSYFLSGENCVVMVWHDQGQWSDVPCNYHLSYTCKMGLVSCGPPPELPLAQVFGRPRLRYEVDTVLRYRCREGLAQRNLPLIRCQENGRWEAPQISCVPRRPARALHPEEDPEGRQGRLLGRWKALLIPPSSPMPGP

[4] = molecular target: T2, recombinant human E-cadherin, P12830
T2 chain: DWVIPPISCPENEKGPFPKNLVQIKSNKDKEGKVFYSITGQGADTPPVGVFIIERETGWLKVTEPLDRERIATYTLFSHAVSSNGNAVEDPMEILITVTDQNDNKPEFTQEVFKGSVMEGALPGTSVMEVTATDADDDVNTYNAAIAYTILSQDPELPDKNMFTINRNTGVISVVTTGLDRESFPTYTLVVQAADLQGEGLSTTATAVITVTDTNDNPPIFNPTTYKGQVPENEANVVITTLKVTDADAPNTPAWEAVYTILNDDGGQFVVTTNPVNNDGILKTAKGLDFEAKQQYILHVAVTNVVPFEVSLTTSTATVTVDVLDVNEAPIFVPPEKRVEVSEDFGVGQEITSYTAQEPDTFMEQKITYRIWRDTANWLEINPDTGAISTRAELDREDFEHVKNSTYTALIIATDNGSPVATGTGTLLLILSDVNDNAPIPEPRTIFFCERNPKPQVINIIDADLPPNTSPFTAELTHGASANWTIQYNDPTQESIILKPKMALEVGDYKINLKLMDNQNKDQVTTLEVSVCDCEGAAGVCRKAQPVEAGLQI

[5] = molecular target: recombinant human neurocan, O14594
[6] = molecular target: T3, native bovine decorin, P21793
T3 chain: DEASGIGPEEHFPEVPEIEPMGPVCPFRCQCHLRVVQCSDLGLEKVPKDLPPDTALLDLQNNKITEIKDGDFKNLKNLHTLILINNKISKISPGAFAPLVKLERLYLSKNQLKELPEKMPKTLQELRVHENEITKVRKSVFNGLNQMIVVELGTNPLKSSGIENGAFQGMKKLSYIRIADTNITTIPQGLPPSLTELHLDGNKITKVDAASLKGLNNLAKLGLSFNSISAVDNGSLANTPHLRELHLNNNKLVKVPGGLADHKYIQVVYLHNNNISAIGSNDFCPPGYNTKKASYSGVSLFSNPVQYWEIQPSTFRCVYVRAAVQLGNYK

[7] = molecular target: T4, native bovine biglycan, P21809
T4 chain: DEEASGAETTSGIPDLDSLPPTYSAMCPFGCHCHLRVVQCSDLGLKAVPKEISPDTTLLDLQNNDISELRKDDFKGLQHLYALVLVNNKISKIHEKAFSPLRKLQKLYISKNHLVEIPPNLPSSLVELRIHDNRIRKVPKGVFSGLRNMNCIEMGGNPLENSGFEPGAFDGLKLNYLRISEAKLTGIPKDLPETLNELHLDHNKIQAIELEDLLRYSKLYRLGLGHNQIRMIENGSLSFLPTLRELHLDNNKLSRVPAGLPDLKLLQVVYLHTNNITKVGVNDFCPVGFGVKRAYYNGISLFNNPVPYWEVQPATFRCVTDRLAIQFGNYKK

[8] = molecular target: recombinant human versican, P13611
[9] = molecular target: recombinant human aggrecan (G1-IGD-G2 domains), P16112
[10] = molecular target: T5, recombinant human biglycan, P21810
T5 chain: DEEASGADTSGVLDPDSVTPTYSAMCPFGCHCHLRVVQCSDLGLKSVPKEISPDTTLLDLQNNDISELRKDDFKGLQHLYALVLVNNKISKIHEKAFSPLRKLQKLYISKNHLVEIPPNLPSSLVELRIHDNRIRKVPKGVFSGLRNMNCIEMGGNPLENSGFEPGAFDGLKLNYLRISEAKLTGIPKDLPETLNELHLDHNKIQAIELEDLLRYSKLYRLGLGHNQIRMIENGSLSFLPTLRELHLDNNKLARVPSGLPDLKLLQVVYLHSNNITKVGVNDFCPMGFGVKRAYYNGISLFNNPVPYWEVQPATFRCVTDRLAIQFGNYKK

[11] = molecular target: native human plasma fibronectin, P02751
[12] = molecular target: T6, recombinant human decorin, P07585
T6 chain: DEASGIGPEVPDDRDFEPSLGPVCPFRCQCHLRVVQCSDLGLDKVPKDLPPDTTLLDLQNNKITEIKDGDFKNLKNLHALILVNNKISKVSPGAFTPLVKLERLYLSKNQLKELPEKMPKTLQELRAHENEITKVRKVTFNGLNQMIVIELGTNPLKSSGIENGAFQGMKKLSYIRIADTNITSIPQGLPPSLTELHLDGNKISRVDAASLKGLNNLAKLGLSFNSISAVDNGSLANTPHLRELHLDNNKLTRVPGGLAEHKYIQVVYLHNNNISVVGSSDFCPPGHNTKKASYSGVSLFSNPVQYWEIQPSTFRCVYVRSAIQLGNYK

Sequence of recombinant human aggrecan (G1-IGD-G2 domains), P16112 (P16112 20-675): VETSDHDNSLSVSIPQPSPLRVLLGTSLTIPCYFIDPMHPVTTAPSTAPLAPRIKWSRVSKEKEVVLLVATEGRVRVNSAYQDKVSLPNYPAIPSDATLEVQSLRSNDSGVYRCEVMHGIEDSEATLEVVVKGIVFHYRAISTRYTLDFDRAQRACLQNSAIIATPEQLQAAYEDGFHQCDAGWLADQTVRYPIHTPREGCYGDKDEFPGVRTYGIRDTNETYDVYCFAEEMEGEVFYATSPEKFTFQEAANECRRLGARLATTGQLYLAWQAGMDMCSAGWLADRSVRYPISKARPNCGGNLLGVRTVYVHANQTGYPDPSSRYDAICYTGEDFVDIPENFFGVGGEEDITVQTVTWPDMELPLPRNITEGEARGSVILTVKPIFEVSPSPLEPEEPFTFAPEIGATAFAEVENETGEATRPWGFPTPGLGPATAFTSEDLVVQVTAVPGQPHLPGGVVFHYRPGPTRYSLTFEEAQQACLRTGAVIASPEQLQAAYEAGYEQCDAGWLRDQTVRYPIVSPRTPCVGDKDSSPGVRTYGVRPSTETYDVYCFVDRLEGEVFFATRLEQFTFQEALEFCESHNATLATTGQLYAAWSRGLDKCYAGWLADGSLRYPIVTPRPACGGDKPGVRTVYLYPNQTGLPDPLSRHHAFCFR
Sequence of recombinant human neurocan, O14594 (O14594 23-1321): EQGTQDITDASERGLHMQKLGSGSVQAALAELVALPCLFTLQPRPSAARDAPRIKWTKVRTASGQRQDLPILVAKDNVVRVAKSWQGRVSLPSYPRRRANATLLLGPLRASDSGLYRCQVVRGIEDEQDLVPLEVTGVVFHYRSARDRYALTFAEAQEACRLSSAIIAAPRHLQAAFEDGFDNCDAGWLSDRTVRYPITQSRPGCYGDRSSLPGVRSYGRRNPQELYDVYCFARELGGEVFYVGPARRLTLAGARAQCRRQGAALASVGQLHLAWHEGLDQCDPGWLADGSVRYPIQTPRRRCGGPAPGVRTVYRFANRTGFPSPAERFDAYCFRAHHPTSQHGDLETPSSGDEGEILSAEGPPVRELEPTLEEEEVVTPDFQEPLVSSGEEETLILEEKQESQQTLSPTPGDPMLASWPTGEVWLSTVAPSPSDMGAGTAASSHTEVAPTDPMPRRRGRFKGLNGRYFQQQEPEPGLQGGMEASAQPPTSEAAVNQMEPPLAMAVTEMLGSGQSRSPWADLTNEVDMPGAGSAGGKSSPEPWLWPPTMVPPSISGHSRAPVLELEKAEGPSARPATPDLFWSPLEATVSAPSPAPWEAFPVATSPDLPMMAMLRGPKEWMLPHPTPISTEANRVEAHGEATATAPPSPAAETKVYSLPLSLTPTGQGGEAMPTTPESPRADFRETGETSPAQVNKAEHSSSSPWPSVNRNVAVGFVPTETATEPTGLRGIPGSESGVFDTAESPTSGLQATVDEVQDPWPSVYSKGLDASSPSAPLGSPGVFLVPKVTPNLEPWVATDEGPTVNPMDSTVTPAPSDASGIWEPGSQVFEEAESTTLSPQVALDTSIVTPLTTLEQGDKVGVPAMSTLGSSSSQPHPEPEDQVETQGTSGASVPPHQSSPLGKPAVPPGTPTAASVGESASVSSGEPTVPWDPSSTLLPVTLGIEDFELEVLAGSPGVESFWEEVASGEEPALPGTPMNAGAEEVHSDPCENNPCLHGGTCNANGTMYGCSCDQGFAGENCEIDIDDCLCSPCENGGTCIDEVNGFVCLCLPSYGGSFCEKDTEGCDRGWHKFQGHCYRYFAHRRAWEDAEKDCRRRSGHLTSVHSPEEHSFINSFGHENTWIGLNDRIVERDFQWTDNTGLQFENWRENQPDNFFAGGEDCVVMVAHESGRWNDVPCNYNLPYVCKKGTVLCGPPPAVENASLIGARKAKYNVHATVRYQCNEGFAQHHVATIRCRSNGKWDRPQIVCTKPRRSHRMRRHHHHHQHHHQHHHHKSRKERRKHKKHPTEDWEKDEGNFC
Sequence of native human plasma fibronectin, P02751 (P02751 other isoform, or with tags, fused parts or gaps): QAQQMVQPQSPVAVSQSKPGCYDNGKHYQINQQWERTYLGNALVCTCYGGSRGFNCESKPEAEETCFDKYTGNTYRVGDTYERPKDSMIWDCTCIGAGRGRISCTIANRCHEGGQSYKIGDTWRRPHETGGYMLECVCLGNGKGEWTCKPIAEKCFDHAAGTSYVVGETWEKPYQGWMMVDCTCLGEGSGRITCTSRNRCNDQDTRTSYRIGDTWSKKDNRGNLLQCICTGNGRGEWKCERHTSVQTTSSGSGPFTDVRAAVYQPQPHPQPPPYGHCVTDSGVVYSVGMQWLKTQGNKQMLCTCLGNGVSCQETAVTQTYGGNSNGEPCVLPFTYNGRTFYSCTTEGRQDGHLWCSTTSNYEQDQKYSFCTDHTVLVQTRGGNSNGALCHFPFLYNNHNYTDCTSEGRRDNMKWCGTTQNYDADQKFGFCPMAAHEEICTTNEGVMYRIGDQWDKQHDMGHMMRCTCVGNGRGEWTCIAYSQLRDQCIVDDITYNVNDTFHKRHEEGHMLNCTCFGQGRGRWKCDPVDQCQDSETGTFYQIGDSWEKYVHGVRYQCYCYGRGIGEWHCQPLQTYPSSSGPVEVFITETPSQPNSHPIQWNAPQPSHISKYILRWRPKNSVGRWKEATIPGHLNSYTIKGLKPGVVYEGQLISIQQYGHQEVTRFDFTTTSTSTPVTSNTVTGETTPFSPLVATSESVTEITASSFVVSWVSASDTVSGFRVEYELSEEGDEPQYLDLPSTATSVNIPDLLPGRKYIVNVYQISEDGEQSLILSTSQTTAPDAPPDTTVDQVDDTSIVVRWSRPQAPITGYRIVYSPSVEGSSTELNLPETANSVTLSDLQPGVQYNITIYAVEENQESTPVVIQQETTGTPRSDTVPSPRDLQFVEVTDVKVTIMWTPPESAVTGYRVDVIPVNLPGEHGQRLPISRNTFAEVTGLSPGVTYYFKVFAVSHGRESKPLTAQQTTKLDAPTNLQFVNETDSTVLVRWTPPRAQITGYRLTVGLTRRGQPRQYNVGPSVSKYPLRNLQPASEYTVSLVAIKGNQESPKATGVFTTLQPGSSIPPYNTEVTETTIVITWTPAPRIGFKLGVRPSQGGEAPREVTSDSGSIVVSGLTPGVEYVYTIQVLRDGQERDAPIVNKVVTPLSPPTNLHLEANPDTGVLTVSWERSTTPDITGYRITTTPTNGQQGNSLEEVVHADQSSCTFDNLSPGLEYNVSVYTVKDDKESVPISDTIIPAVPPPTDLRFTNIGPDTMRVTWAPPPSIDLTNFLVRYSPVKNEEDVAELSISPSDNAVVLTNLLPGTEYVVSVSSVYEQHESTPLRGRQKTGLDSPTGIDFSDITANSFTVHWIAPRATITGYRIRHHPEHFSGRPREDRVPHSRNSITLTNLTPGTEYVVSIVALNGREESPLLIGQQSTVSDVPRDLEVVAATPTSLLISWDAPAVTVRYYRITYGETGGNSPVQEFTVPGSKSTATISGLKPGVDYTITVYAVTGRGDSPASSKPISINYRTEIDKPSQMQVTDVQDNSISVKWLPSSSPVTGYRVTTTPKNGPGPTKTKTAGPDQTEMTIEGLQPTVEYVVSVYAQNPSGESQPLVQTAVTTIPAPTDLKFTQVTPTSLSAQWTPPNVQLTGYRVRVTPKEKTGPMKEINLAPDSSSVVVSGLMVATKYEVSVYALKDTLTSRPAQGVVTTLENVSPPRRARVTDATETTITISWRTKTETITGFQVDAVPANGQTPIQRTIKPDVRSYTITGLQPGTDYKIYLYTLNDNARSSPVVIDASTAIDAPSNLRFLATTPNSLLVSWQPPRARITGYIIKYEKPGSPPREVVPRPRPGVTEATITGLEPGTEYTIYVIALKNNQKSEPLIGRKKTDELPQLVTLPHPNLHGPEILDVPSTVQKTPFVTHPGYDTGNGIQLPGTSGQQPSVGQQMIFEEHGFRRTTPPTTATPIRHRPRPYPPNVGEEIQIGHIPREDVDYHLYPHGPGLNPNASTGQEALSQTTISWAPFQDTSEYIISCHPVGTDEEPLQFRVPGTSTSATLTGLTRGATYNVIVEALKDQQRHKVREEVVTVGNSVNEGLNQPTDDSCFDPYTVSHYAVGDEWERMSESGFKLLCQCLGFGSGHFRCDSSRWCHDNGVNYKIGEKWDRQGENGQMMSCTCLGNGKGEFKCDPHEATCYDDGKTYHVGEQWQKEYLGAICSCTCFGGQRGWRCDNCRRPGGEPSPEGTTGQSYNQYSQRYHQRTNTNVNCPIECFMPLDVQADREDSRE

Protein	Proteolytic activity [1]	β-casein zymography [2]	Proteolytic activity [3]	Proteolytic activity [4]	Proteolytic activity [5]	Proteolytic activity [6]	Proteolytic activity [7]	Proteolytic activity [8]	Proteolytic activity [9]	Proteolytic activity [10]	Proteolytic activity [11]	Proteolytic activity [12]	Proteolytic activity (native bovine casein)	proteolytic fragments on silver-stained SDS-PAGE [9]
Borrelia burgdorferi HtrA (BB0104, BbHtrA), recombinant wild type mature protein (amino acids 38-474), His-tagged, made in E. coli (protein) EEKDNTVRALQDSFREVSKKILPSSVEVHATGVIKQSFPIPFFFFDMPEFDSERKSNWAGSGVIIGRDSQKKSLFYVVTNSHVVDKATELEVVSYDKKKHKAKLIGKDEKKDIALISFESDDATIKVADLGDSDKLEIGDWVMAVGSPFQFSFTVTAGIVSGLQRSANPNLQSRNLFIQTDAAINRGNSGGPLVNIKGEVIGINAWIASNSGGNIGLGFAIPVNNIKSTVDFFLKGKKIESAWLGISFYPLKTRDSEVLKSLGVESNDVSAAIIASLYPGSPAVKSGLRAGDIIMKVNGVSMSVFQDVTSYISDFYAGEKVNVEILRGNVKKNIEIVLAVRPKDKELSSSKMLPGFVVYPLVEDIKAQLNLRNWIKGVVVDYIDKNLASNIKMKSGDVILSVNSKSVSNLREFYDALEVGKNTYKILRGNDSFKITF	+	Recombinant BbHtrA was proteolytically active against β-casein as evidenced by clearing around the protein band	+	+	+	+	+	+	+	+	+	+	+	
Borrelia burgdorferi HtrA (BB0104, BbHtrA^S226A), recombinant inactive mutant, mature protein (amino (protein) EEKDNTVRALQDSFREVSKKILPSSVEVHATGVIKQSFPIPFFFFDMPEFDSERKSNWAGSGVIIGRDSQKKSLFYVVTNSHVVDKATELEVVSYDKKKHKAKLIGKDEKKDIALISFESDDATIKVADLGDSDKLEIGDWVMAVGSPFQFSFTVTAGIVSGLQRSANPNLQSRNLFIQTDAAINRGNAGGPLVNIKGEVIGINAWIASNSGGNIGLGFAIPVNNIKSTVDFFLKGKKIESAWLGISFYPLKTRDSEVLKSLGVESNDVSAAIIASLYPGSPAVKSGLRAGDIIMKVNGVSMSVFQDVTSYISDFYAGEKVNVEILRGNVKKNIEIVLAVRPKDKELSSSKMLPGFVVYPLVEDIKAQLNLRNWIKGVVVDYIDKNLASNIKMKSGDVILSVNSKSVSNLREFYDALEVGKNTYKILRGNDSFKITF														incubation of recombinant aggrecan (FIG. 4A, lane 1) alone or with the inactive mutant (FIG. 4A, lane 6) failed to generate these fragments
